Assay results as given in publication PMC11381810.

Tests used:
[1] = target: syntaxin-1A (1–265) S225C, endogenous cysteines replaced by serine (Rattus norvegicus) (UniProt P32851); assay: FRET or BRET; stopped-flow; Alexa Fluor 488 (donor) and Alexa Fluor 647 (acceptor) on syntaxin and SNAP25; one partner fixed at 0.125 μM and the other titrated, or equimolar; 37 °C; 20 mM Hepes, 150 mM KCl, 0.1 mM TCEP, pH ~7.4
[2] = target: 2:1 syntaxin:SNAP25 complex (premixed syntaxin-1A (1–265) S225C and SNAP25a (1–206) M49C) (Rattus norvegicus) (UniProt P32851); assay: FRET or BRET; stopped-flow; donor-labelled syntaxin and acceptor-labelled SNAP25 at 1:1, unlabeled synaptobrevin titrated in excess; syntaxin and SNAP25 premixed, or SNAP25 and synaptobrevin added together to syntaxin; 37 °C
[3] = target: SNAP25a (1–206) M49C, endogenous cysteines replaced by serine (Rattus norvegicus) (UniProt P60881); assay: FRET or BRET + SEC; equimolar stopped-flow titration at 37 °C (kobs^2 hyperbolic) and size-exclusion chromatography of the 1:1 mix after overnight incubation at 4 °C (excess of free SNAP25)
[4] = target: SNAP25a (1–206) M49C, endogenous cysteines replaced by serine (Rattus norvegicus) (UniProt P60881); assay: FRET or BRET; stopped-flow; Alexa Fluor 488 (donor) and Alexa Fluor 647 (acceptor) on syntaxin and SNAP25; one partner fixed at 0.125 μM and the other titrated, or equimolar; 37 °C; 20 mM Hepes, 150 mM KCl, 0.1 mM TCEP, pH ~7.4

Substance: SNAP25a (1–206) M49C, endogenous cysteines replaced by serine (from UniProt P60881-2 1-206) (natural protein)
- intercept of kobs over [SNAP25]0 [1]: 0.019

Substance: synaptobrevin 2 (1–96) S61C (from UniProt P63045 1-96) (domain or fragment)
- rate constant of the irreversible step (first, exponential phase) [2]: 7520 M⁻¹ s⁻¹

Substance: syntaxin-1A (1–265) S225C, endogenous cysteines replaced by serine (from UniProt P32851 1-265) (domain or fragment)
- stoichiometry N (syntaxin per SNAP25) [3]: 2
- intercept of kobs over [syntaxin]0 [4]: 0.0032
